Measurements taken from article PMC3089468 (Nucleic Acids Research, 2011).

How the values were obtained:
Assay in all cases: two-hybrid
λCI_Arnt362 M267K = λCI_Arnt362 M267K (human, UniProt P27540 1-362, M267K)
λCI_Arnt362 V306D = λCI_Arnt362 V306D (human, UniProt P27540 1-362, V306D)
λCI_Arnt362 C308R = λCI_Arnt362 C308R (human, UniProt P27540 1-362, C308R)
λCI_Arnt362 A339D = λCI_Arnt362 A339D (human, UniProt P27540 1-362, A339D)
λCI_Arnt362 G341D = λCI_Arnt362 G341D (human, UniProt P27540 1-362, G341D)
Chain of λCI_Arnt362 G341D (P27540 1-362 G341D): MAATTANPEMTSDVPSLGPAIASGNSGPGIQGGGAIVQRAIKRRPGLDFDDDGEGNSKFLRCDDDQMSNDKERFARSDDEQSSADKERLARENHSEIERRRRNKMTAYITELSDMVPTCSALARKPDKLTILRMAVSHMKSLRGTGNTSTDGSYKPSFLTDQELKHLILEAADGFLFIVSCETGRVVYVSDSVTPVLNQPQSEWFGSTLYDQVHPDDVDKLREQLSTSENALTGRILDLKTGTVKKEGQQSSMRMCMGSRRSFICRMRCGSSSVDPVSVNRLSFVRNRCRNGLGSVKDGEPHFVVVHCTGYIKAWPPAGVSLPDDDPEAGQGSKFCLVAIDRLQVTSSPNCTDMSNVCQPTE

λCI_Arnt362 L221H = λCI_Arnt362 L221H (human, UniProt P27540 1-362, L221H)
Chain of λCI_Arnt362 L221H (P27540 1-362 L221H): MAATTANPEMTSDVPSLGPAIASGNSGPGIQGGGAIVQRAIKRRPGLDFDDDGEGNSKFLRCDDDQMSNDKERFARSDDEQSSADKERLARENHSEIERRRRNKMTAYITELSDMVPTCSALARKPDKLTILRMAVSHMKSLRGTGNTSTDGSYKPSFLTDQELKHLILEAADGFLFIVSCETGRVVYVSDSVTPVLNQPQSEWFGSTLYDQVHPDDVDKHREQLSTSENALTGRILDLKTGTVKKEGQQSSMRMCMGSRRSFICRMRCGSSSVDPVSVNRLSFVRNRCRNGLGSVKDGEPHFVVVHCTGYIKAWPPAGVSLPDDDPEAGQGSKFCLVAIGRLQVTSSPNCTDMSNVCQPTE

λCI_Arnt362 C265R = λCI_Arnt362 C265R (human, UniProt P27540 1-362, C265R)
Chain of λCI_Arnt362 C265R (P27540 1-362 C265R): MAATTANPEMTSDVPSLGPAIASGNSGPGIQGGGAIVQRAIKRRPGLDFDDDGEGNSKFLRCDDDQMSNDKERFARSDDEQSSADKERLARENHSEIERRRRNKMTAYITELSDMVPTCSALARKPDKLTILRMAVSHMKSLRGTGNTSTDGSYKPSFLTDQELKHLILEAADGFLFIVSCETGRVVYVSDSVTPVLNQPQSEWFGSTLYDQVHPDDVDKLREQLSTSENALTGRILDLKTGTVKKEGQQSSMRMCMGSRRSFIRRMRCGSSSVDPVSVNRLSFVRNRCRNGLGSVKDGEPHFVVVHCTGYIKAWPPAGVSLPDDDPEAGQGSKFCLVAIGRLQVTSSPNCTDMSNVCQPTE

Chain of λCI_Arnt362 V306D (P27540 1-362 V306D): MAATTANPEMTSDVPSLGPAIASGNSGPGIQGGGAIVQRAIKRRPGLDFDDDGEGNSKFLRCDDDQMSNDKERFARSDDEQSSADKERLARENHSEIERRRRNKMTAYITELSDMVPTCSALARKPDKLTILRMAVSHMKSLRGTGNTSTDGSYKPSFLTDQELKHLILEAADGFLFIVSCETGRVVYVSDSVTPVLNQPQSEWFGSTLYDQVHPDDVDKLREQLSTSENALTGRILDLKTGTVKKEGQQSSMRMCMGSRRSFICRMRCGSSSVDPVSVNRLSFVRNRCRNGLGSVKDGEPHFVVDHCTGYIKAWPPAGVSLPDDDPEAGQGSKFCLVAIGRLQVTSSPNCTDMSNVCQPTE
Chain of λCI_Arnt362 C308R (P27540 1-362 C308R): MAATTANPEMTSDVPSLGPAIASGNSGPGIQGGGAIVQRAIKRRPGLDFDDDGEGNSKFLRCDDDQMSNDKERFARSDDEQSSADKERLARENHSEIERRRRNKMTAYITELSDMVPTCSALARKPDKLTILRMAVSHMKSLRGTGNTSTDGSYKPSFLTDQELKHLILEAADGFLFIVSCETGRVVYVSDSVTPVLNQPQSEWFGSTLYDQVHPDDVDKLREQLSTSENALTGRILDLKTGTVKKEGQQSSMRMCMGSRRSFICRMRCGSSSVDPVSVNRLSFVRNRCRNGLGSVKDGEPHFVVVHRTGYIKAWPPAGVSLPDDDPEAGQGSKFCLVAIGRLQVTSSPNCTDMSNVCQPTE
Chain of λCI_Arnt362 M267K (P27540 1-362 M267K): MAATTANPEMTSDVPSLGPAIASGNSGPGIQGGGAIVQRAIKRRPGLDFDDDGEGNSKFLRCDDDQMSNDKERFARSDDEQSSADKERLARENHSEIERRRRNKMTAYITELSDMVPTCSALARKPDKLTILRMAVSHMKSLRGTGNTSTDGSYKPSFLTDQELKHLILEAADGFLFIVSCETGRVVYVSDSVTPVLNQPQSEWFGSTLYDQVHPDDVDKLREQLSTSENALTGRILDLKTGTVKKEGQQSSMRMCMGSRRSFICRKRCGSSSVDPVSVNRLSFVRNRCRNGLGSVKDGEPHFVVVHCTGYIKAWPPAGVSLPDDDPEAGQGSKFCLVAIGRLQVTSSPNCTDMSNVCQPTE
Chain of λCI_Arnt362 A339D (P27540 1-362 A339D): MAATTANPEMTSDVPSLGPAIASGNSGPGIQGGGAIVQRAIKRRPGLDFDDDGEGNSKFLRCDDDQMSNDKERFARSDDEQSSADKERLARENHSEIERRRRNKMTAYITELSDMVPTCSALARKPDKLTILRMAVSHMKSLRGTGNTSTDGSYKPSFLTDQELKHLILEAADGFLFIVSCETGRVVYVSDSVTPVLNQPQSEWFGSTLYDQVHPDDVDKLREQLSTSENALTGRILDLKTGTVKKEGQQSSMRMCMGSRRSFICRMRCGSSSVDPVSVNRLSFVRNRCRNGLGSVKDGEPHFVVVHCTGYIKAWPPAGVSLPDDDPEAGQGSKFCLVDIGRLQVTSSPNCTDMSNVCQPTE

B1: RNAPα_AhR278 (domain or fragment, mouse, UniProt P30561 1-278, looked up)
chain: MSSGANITYASRKRRKPVQKTVKPIPAEGIKSNPSKRHRDRLNTELDRLASLLPFPQDVINKLDKLSVLRLSVSYLRAKSFFDVALKSTPADRNGGQDQCRAQIRDWQDLQEGEFLLQALNGFVLVVTADALVFYASSTIQDYLGFQQSDVIHQSVYELIHTEDRAEFQRQLHWALNPDSAQGVDEAHGPPQAAVYYTPDQLPPENASFMERCFRCRLRCLLDNSSGFLAMNFQGRLKYLHGQNKKGKDGALLPPQLALFAIATPLQPPSILEIRTKN
β-gal activity relative to wt (λCI_Arnt362 M267K): < 60 % of wt β-gal activity
β-gal activity relative to wt (λCI_Arnt362 V306D): < 60 % of wt β-gal activity
β-gal activity relative to wt (λCI_Arnt362 C308R): < 60 % of wt β-gal activity
β-gal activity relative to wt (λCI_Arnt362 A339D): < 60 % of wt β-gal activity
β-gal activity relative to wt (λCI_Arnt362 G341D): 47 % of wt activity
β-gal activity relative to wt (λCI_Arnt362 L221H): < 60 % of wt β-gal activity
β-gal activity relative to wt (λCI_Arnt362 C265R): < 60 % of wt β-gal activity
